B1: Nuclear pore complex protein Nup98-Nup96 (Homo sapiens), P52948 (parent)
chain: MFNKSFGTPFGGGTGGFGTTSTFGQNTGFGTTSGGAFGTSAFGSSNNTGGLFGNSQTKPGGLFGTSSFSQPATSTSTGFGFGTSTGTANTLFGTASTGTSLFSSQNNAFAQNKPTGFGNFGTSTSSGGLFGTTNTTSNPFGSTSGSLFGPSSFTAAPTGTTIKFNPPTGTDTMVKAGVSTNISTKHQCITAMKEYESKSLEELRLEDYQANRKGPQNQVGAGTTTGLFGSSPATSSATGLFSSSTTNSGFAYGQNKTAFGTSTTGFGTNPGGLFGQQNQQTTSLFSKPFGQATTTQNTGFSFGNTSTIGQPSTNTMGLFGVTQASQPGGLFGTATNTSTGTAFGTGTGLFGQTNTGFGAVGSTLFGNNKLTTFGSSTTSAPSFGTTSGGLFGNKPTLTLGTNTNTSNFGFGTNTSGNSIFGSKPAPGTLGTGLGAGFGTALGAGQASLFGNNQPKIGGPLGTGAFGAPGFNTTTATLGFGAPQAPVALTDPNASAAQQAVLQQHINSLTYSPFGDSPLFRNPMSDPKKKEERLKPTNPAAQKALTTPTHYKLTPRPATRVRPKALQTTGTAKSHLFDGLDDDEPSLANGAFMPKKSIKKLVLKNLNNSNLFSPVNRDSENLASPSEYPENGERFSFLSKPVDENHQQDGDEDSLVSHFYTNPIAKPIPQTPESAGNKHSNSNSVDDTIVALNMRAALRNGLEGSSEETSFHDESLQDDREEIENNSYHMHPAGIILTKVGYYTIPSMDDLAKITNEKGECIVSDFTIGRKGYGSIYFEGDVNLTNLNLDDIVHIRRKEVVVYLDDNQKPPVGEGLNRKAEVTLDGVWPTDKTSRCLIKSPDRLADINYEGRLEAVSRKQGAQFKEYRPETGSWVFKVSHFSKYGLQDSDEEEEEHPSKTSTKKLKTAPLPPASQTTPLQMALNGKPAPPPQSQSPEVEQLGRVVELDSDMVDITQEPVLDTMLEESMPEDQEPVSASTHIASSLGINPHVLQIMKASLLTDEEDVDMALDQRFSRLPSKADTSQEICSPRLPISASHSSKTRSLVGGLLQSKFTSGAFLSPSVSVQECRTPRAASLMNIPSTSSWSVPPPLTSVFTMPSPAPEVPLKTVGTRRQLGLVPREKSVTYGKGKLLMDMALFMGRSFRVGWGPNWTLANSGEQLNGSHELENHQIADSMEFGFLPNPVAVKPLTESPFKVHLEKLSLRQRKPDEDMKLYQTPLELKLKHSTVHVDELCPLIVPNLGVAVIHDYADWVKEASGDLPEAQIVKHWSLTWTLCEALWGHLKELDSQLNEPREYIQILERRRAFSRWLSCTATPQIEEEVSLTQKNSPVEAVFSYLTGKRISEACSLAQQSGDHRLALLLSQFVGSQSVRELLTMQLVDWHQLQADSFIQDERLRIFALLAGKPVWQLSEKKQINVCSQLDWKRSLAIHLWYLLPPTASISRALSMYEEAFQNTSDSDRYACSPLPSYLEGSGCVIAEEQNSQTPLRDVCFHLLKLYSDRHYDLNQLLEPRSITADPLDYRLSWHLWEVLRALNYTHLSAQCEGVLQASYAGQLESEGLWEWAIFVLLHIDNSGIREKAVRELLTRHCQLLETPESWAKETFLTQKLRVPAKWIHEAKAVRAHMESDKHLEALCLFKAEHWNRCHKLIIRHLASDAIINENYDYLKGFLEDLAPPERSSLIQDWETSGLVYLDYIRVIEMLRHIQQVDCSGNDLEQLHIKVTSLCSRIEQIQCYSAKDRLAQSDMAKRVANLLRVVLSLHHPPDRTSDSTPDPQRVPLRLLAPHIGRLPMPEDYAMDELRSLTQSYLRELAVGSL
partner: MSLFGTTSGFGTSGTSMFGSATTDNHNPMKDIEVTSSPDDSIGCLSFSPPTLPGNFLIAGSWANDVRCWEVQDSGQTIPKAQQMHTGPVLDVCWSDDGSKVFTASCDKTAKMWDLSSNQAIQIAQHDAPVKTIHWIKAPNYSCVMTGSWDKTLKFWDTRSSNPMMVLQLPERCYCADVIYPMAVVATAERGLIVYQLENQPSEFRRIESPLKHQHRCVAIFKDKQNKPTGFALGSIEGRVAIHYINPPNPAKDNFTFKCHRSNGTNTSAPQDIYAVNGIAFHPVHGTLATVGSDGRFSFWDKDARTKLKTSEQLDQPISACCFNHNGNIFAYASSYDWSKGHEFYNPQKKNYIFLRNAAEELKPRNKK

Variants of: B1
Settings: with rae1l_human RAE1, P78406

| Variant | effect of a mutation on the interaction |
| --- | --- |
| E201K;E202K | disrupting interaction |
